From US8889621B2, “Inhibiting binding of FGF23 to the binary FGFR-Klotho complex for the treatment of hypophosphatemia” (New York University, priority 2009, dated 2014)

Biological target: T1, FGFR1c-Klotho complex (UniProt O35082+P11362)
T1 construct: The ectodomain of murine Klotho (A35 to K982) was purified from culture media; FLAG (C); made in house; host or cells: E. coli (FGFR1c); HEK293 conditioned media (Klotho ectodomain)
T1 sequence (P11362 142-365): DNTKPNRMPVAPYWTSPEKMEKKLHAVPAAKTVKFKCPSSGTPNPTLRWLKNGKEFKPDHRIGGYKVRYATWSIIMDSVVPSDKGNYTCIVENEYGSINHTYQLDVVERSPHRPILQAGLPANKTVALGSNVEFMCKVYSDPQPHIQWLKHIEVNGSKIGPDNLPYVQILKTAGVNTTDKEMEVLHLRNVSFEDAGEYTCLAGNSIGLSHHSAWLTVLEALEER
T1 sequence (O35082 35-982): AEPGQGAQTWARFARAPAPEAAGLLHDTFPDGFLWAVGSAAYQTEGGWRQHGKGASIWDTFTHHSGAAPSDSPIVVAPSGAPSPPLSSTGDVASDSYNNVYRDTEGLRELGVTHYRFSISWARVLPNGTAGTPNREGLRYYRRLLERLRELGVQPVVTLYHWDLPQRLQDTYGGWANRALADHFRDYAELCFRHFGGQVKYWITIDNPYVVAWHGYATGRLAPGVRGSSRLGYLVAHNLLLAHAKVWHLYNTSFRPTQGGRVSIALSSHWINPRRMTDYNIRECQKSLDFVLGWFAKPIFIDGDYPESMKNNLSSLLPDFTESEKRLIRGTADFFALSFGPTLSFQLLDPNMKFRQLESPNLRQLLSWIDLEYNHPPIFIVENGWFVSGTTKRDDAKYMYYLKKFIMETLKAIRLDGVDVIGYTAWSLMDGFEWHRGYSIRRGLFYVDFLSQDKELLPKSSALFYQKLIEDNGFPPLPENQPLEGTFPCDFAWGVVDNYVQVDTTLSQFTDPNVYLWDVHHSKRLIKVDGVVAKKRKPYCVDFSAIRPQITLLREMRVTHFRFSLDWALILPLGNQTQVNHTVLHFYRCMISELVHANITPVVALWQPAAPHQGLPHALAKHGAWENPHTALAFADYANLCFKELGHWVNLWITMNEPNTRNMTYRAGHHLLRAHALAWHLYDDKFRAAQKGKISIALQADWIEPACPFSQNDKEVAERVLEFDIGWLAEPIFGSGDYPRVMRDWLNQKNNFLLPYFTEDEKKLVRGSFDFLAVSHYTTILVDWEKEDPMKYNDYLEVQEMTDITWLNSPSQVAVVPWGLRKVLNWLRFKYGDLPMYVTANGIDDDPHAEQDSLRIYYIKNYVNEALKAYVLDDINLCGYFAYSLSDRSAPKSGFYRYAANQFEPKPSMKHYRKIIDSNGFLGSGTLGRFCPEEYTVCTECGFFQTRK
Experiment: Size-exclusion chromatography of ternary complex formation
Format: binding, human FGFR1c, murine Klotho
Conditions: 1.0 M NaCl, pH7.5
Protocol: Size-exclusion chromatography may also be used to determine that an agent specifically binds the binary FGFR-Klotho complex. One aspect of the present invention utilizes size-exclusion chromatography. The size-exclusion chromatography experiments were performed on a HiLoad™ 16/60 Superdex™ 200 prep grade column. Because of poor solubility of FGF23 proteins and FGFR1c ectodomain in low salt buffer, the experiments were carried out with 25 mM HEPES-NaOH buffer, pH7.5, containing 1.0 M NaCl. Sample injection volume was 0.3 to 1.0 ml, and the flow rate was 1.0 ml min^−1. Protein retention times were determined by absorbance at 280 nm. The column was calibrated with ferritin (440 kDa), immunoglobulin G (150 kDa), albumin (69.3 kDa), ovalbumin (44.3 kDa), and carbonic anhydrase (28.8 kDa). The void volume was determined using blue dextran 2,000. […]
Size-exclusion chromatography experiments were performed on a HiLoad™ 16/60 Superdex™ 200 prep grade column (GE Healthcare) mounted on an ÄKTApurifier (GE Healthcare). […] Protein retention times were determined by absorbance at 280 nm. […] The void volume was determined using blue dextran 2,000. […]

co-elution with the FGFR1c-Klotho complex: co-eluted with the FGFR1c-Klotho complex
B1: FGF23^28-251: human FGF23 (A28 to I251), bioactive full-length ligand expressed in E. coli (protein, listed as Homo sapiens)
chain: ASPLLGSSWGGLIHLYTATARNSYHLQIHKNGHVDGAPHQTIYSALMIRSEDAGFVVITGVMSRRYLCMDFRGNIFGSHYFDPENCRFQHQTLENGYDVYHSPQYHFLVSLGRAKRAFLPGMNPPPYSQFLSRRNEIPLIHFNTPIPRRHTRSAEDDSERDPLNVLKPRARMTPAPASCSQELPSAEDNSPMASDPLGVVRGGRVNTHAGGTGPEGCRPFAKFI
